In this experiment the target is Ops*, an active form of opsin which is similar to metarhodopsin II (UniProt P02699).

Among the data in article PMC5059438 are molar mass of functionally reconstituted scramblase, from the fit of p(≥1 scramblase) versus PPR* (dithionite/NBD-PC scramblase assay on proteoliposomes) values, retold here.

The substance “Ops*, an active form of opsin which is similar to metarhodopsin II (from UniProt P02699 1-348) (receptor)” gave a molar mass of functionally reconstituted scramblase, from the fit of p(≥1 scramblase) versus PPR* (dithionite/NBD-PC scramblase assay on proteoliposomes) of 90800 g/mol.
